Data on 3 molecules can be found in US5886157A, “Expression and purification of human cytochrome P450” (Vanderbilt University, priority 1994, dated 1999).

Series [1] concerns the target P450 2C1029 (truncated human cytochrome P450 2C10 expressed in E. coli) (human) (UniProt P11712). As to conditions: scale: nmol product formed min^-1.
The target of series [2] is P450 2C1028 (modified human cytochrome P450 2C10 expressed in E. coli) (human) (UniProt P11712). The conditions noted are these: scale: nmol product formed min^-1.
Series [3] concerns the target P450 2C9/10 purified from human liver microsomes (human) (UniProt P11712). As to conditions: scale: nmol product formed min^-1.
The target in series [4] is recombinant human P450 2E1 (construct 2E1 #18) expressed in E. coli (human) (UniProt P05181). As to conditions: scale: nmol 6-hydroxychlorzoxazone formed min^-1.
Series [5] has as its target recombinant human P450 1A2 (construct 1024) expressed in E. coli (human) (UniProt P05177).
Substrate in series [6]: CCOc1ccc2nc3ccc(=O)cc-3oc2c1
The series can be described thus: 7-Ethoxyresorufin O-deethylation in P450 1A1 reconstituted system. In kind it is biochemical, human. As to conditions: other: 5 nM P450 1A1, 10 nM NADPH-cytochrome P450 reductase. The method, then: (§1) FIG. 42. Substrate concentration-dependent benzo(a)pyrene 3-hydroxylation (A) and 7-ethoxyresorufin O-deethylation (B) in a P450 1A1 reconstutited system. Benzo(a)pyrene 3-hydroxylation were assayed with 25 nM P450 1A1 and 50 nM NADPH-cytochrome P450 reductase. 7-Ethoxyresorufin O-deethylation were assayed with 5 nM P450 1A1 and 10 nM NADPH-cytochrome P450 reductase.
(§2) 7-Ethoxyresorufin O-dealkylation (Burke and Mayer, Drug Metab. Dispos. 3:245-253 (1975); Burke and Mayer, Chem.-Biol. Interactions 45:243-258 (1983)) and benzo(a)pyrene 3-hydroxylation (Nebert and Gelboin, J. Biol. Chem. 243:6242-6249 (1968); Guengerich in Principles and Methods of Toxicology, Hayes, A. W., Ed., 777-814, Raven Press, New York (1989)) were determined as described elsewhere. Protein concentrations were estimated using a bicinchoninic acid (BCA) method according to the instructions supplied by the manufacturer (Pierce Chemical Co., Rockford, Ill.).
(§3) Catalytic activities. The purified P450 1A1 protein was examined for catalytic activities in a conventional reconstitution system containing rabbit NADPH-P450 reductase and L-α-1,2-dilauroyl-sn-glycero-3-phosphocholine. P450 1A1 catalyzed benzo(a)pyrene 3-hydroxylation and 7-ethoxyresorufin O-deethylation at rates of 1.7 and 6.2 nmol product formed min^-1 (nmol P450)^-1, respectively (FIGS. 41A,B). […]

Substrate in series [7]: c1ccc2c(c1)cc1ccc3cccc4ccc2c1c34
The series can be described thus: Benzo(a)pyrene 3-hydroxylation in P450 1A1 reconstituted system. Type of series: biochemical, human. As to conditions: other: 25 nM P450 1A1, 50 nM NADPH-cytochrome P450 reductase. How it is done: as §1, §2, §3

Usually Km stands for the substrate concentration at which the rate is half of its maximum.

For the molecule “human liver cytochrome b5 (from UniProt P00167)”, the tolbutamide hydroxylation, reconstituted system in series [1] worked out at 1.77; in series [2], 0.57; in series [3], 0.51. The chlorzoxazone 6-hydroxylation by purified P450 2E1 (Vmax) in series [4] stood at 5.56.

“rabbit liver NADPH-P450 reductase (from UniProt P00389) (enzyme)”: the anaerobic reduction of P450 1A2 (rate of reduction, formation of the Fe2+.CO complex) in series [5] was above 3 min⁻¹.

B1: purified recombinant human cytochrome P450 1A1, N-terminally modified (construct #17, SEQ ID NO: 5), expressed in E. coli (Homo sapiens; L2A) (protein)
chain: AFPISMSATEFLLASVIFCLVFWVIRASRPQVPKGLKNPPGPWGWPLIGHMLTLGKNPHLALSRMSQQYGDVLQIRIGSTPVVVLSGLDTIRQALVRQGDDFKGRPDLYTFTLISNGQSMSFSPDSGPVWAARRRLAQNGLKSFSIASDPASSTSCYLEEHVSKEAEVLISTLQELMAGPGHFNPYRYVVVSVTNVICAICFGRRYDHNHQELLSLVNLNNNFGEVVGSGNPADFIPILRYLPNPSLNAFKDLNEKFYSFMQKMVKEHYKTFEKGHIRDITDSLIEHCQEKQLDENANVQLSDEKIINIVLDLFGAGFDTVTTAISWSLMYLVMNPRVQRKIQEELDTVIGRSRRPRLSDRSHLPYMEAFILETFRHSSFVPFTIPHSTTRDTSLKGFYIPKGRCVFVNQWQINHDQKLWVNPSEFLPERFLTPDGAIDKVLSEKVIIFGMGKRKCIGETIARWEVFLFLAILLQRVEFSVPLGVKVDMTPIYGLTMKHACCEHFQMQLRS
notes: made in house; host or cells: E. coli DH5α, vector pCW
For the molecule B1, in series [6], the Km came out at 0.58 µM and the kcat was 8.3 nmol product formed min^-1 (nmol P450)^-1. In addition, in series [7], the Km was determined as 15 µM and the kcat is recorded as 2.5 nmol product formed min^-1 (nmol P450)^-1.
